These results are taken from patent publication US20260248877A1 (Universite de Rennes, priority 2021, published 2026).

Entries after “also recorded” stand apart in the source; their conditions may differ.

A short description of series [1]: Solubility of peptides in aqueous medium. Particulars: could not be tested at 800 μM. It is filed as physicochemical. On the procedure:
The PHIF6 peptide (Ac-VQIVYK-NH2) as well as the derived hexapeptides were produced by Proteogenix® in an N-acetylated and C-amidated form and supplied in a lyophilized form. They are acetylated and amidated in order to better mimic the original protein. They were resuspended in milli Q water and filtered through 0.2 μm to obtain a concentration close to 5 mg/mL. After being vortexed for 15 minutes, the peptide solution was sonicated for 15 minutes at 35° C. in a sonicator water bath (Advantage-Lab AL04-04) then ultracentrifuged (Beckman TL100) at 100,000 g for 10 minutes at 20° C. The pellet containing the residual aggregates was discarded. The concentration of the supernatant was determined by measuring UV absorption at 280 nm using a molar extinction coefficient of 1450 M^−1cm^−1 in 1% SDS.

In series [2] the test system is cells of the neuroblastoma line SH-SY5Y. Nature of the series: Growth of SH-SY5Y neuroblastoma cells (images). Format: cell-based. Particulars: 100 μM, 24 hours, 1×DMEM medium, 8% serum. As to the method: The effects of three hexapeptides classified as “therapeutic” (1tp, 4tp, 6tp) and of two peptides classified as “amyloid” (7tp and 1p) on the growth of cells of the neuroblastoma line SH-SY5Y were studied after 24 hours of treatment in the presence of a hexapeptide at a concentration of 100 μM in 1×DMEM medium, 8% serum. The results obtained are presented on FIG. 10(A).

The target of series [3] is T1, PHF6 peptide (VQIVYK, 1p) (Homo sapiens, UniProt P10636).
T1 construct: The polymerization of VQIVYK was initiated by adding ¼ of the volume of fibrillation buffer 5×
Kind of series: Effects of the derived peptides on VQIVYK polymerization by spectrofluorimetry (ThT kinetics). It is filed as biochemical.

The nature of series [4]: Determination of the amyloidogenic character of the peptides by Thioflavin T fluorescence. It is filed as physicochemical. The conditions noted are these: ThT fluorescence, Garnier-Delamarche representation. As to the method: (§1) After thawing, a pre-dilution in milli Q H2O filtered through 0.2 μm was carried out in order to obtain a solution at a concentration close to the working concentration, greater than 1.25 times. This stock solution was left to incubate for 1 hour in a water bath at 25° C., and was then assayed spectrophotometrically and adjusted to the final working concentration of 1.25 times. The polymerization was initiated by adding ¼ of the volume of 5× fibrillation buffer (50 mM MOPS, 750 mM NaCl, pH=7.2) for a final concentration of 1× fibrillation buffer (10 mM MOPS, 150 mM NaCl, PH=7.2). The samples were left to incubate for 1.5-2 hours at 25° C. in a water bath. The study of the polymerization by fluorimetry was carried out under the same conditions, except that the 5× polymerization buffer was supplemented with Thioflavin T (ThT) at 100 μM in order to be able to observe the fluorescence. • (a) Determination of the Aggregative Character of the Peptides. Once polymerized, the samples were ultracentrifuged at 100,000 g for 5 minutes at 25° C. (Beckman TL100, rotor TL-A100). The supernatants of each sample were then collected. An assay at 280 nm in triplicate of each supernatant was then carried out in the presence of 1% SDS. The concentration of the supernatant was determined using the Beer-Lambert law A=ε×1×C; ε (peptides)=1450 M^−1cm^−1. The concentration of sedimentable species in the pellet was then deduced by the difference: “total concentration of the sample—concentration of free peptide present in the supernatant”. • (b) Determination of the Amyloidogenic Character of the Peptides. Once the peptides have polymerized as previously indicated, 40 μL of peptides polymerized at a concentration of 400 μM and 800 μM were diluted in 360 μL of Thioflavin T (10 μM ThT, 1×MOPS) in a thermostatically controlled tank of 0.2×1 cm, to a final volume of 400 μL. The fluorescence of the sample was then measured immediately after dilution by recording a fluorescence spectrum (470 nm to 600 nm) at an excitation wavelength of 450 nm (Perkin Elmer LS 55, PM 750, slit10).
(§2) After prediction of their amyloidogenic character by bioinformatics, all the peptides were studied using biochemical techniques, namely sedimentation and fluorescence/ThT. The biochemical experiments were carried out at two peptide concentrations: 400 μM and 800 μM. Only the results obtained at 800 μM are presented. At this concentration, in sedimentation, the amount of sedimentable peptide after polymerization was measured and expressed as a percentage as a function of the total concentration. This value corresponds to the aggregative character of the peptides. On the other hand, the fluorescence test was used to determine their amyloidogenic character, the fluorescence value given corresponds to a normalization with respect to 1p, considering that its fluorescence is 100% (Table 4).

The nature of series [5]: Polymerization kinetics of selected peptide alone (ThT spectrofluorimetry). It is filed as physicochemical. Particulars: 310 μM, ThT fluorescence. As to the method: After thawing, a pre-dilution of the peptides of interest in sterile water was carried out in order to obtain, for each peptide, a solution at a concentration close to the working concentration. The peptides were then left to incubate at 4° C. overnight. On the day of the experiment, the peptide solutions were sonicated for 10 minutes, left to stand for one hour at room temperature, sonicated again for 10 minutes and assayed spectrophotometrically at 280 nm (8=1450 M^−1cm^−1). The UV spectra were previously normalized to 0 at 300 nm. The solutions were prepared at concentrations of peptides ¼ above that desired in the end. The polymerization of VQIVYK was initiated by adding ¼ of the volume of fibrillation buffer 5× for a final concentration of fibrillation buffer 1× (10 mM MOPS, 150 mM NaCl, pH=7.2).
The analyses were carried out on a spectrofluorometer (LS 55 from Perkin Elmer) fitted with a 4-cell rack. Black quartz cells (0.2×1.0 cm) were used. […]
The results were first smoothed over 10 points with the “smooth” option of the KaleidaGraph software. […] Finally, the results of each kinetics were normalized relative to the fluorescence intensity of the 1p control after 100 minutes of polymerization considered to be 100%.

Series [6] in a line: Determination of the aggregative character of the peptides by sedimentation. It is filed as physicochemical. Particulars: sedimentation, Garnier-Delamarche representation. As to the method: as §1, §2
Where [7] appears, read: [1p]=155 μM, [selected peptide]=310 μM, [ThT]=32 μM.

Ac-YQVVIK-NH2 [9tp, YQVVIK]: the “solubility in aqueous medium” value in series [1] is recorded as “low solubility”.
Take YQIVVK (Ac-YQIVVK-NH2) [6tp]: in series [2], the “effect on cell growth (number and appearance of cells)” value is recorded as “did not seem to have any effect”. The “category of polymerization kinetics of 1p in the presence of peptide” value in series [3] ([1p]=155 μM, [selected peptide]=310 μM) was “slow compared to 1p alone and which have a lower fluorescence intensity”. Besides, the “inhibitory effect on 1p (PHF6) polymerization (in words)” value in series [3] ([1p]=155 μM, [selected peptide]=310 μM, thresholds 50% rate, 100% fluorescence intensity) was “clearly inhibited; also recorded: marked inhibitory effect; also recorded: with a strong inhibitory effect”. Besides, the “inhibitory effect over longer times” value in series [3] (polymerization followed for 15 hours) is recorded as “the inhibitory effect persisted”. In addition, the “amyloidogenic character (in words)” value in series [4] is “weakly amyloidogenic”. Moreover, the “polymerization of the peptide on its own” value in series [5] is on record as “do not polymerize on their own”. In addition, the “aggregative character (in words)” value in series [6] is listed as “weakly aggregative”.
As for Ac-YQVKIV-NH2 [16p, YQVKIV], the “solubility in aqueous medium” value in series [1] is given as “low solubility”.
For Ac-VKIVYQ-NH2 [1tp, VKIVYQ], the “effect on cell growth (number and appearance of cells)” value in series [2] is on record as “did not seem to have any effect”. In series [3] (setting [7]), the “fluorescence intensity (plateau / at 100 minutes) of 1p in the presence of peptide, % of 1p alone” value is on record as 23.5% and the “maximum polymerization rate of 1p in the presence of peptide, % of 1p alone” value is on record as 12%.
